Results reported in patent US20240383984A1 (Genentech, published 2024).

T1: cynomolgus E11 domain protein (cynomolgus monkey)
T1 construct: whole entry named; also called cyno E11
T1 chain: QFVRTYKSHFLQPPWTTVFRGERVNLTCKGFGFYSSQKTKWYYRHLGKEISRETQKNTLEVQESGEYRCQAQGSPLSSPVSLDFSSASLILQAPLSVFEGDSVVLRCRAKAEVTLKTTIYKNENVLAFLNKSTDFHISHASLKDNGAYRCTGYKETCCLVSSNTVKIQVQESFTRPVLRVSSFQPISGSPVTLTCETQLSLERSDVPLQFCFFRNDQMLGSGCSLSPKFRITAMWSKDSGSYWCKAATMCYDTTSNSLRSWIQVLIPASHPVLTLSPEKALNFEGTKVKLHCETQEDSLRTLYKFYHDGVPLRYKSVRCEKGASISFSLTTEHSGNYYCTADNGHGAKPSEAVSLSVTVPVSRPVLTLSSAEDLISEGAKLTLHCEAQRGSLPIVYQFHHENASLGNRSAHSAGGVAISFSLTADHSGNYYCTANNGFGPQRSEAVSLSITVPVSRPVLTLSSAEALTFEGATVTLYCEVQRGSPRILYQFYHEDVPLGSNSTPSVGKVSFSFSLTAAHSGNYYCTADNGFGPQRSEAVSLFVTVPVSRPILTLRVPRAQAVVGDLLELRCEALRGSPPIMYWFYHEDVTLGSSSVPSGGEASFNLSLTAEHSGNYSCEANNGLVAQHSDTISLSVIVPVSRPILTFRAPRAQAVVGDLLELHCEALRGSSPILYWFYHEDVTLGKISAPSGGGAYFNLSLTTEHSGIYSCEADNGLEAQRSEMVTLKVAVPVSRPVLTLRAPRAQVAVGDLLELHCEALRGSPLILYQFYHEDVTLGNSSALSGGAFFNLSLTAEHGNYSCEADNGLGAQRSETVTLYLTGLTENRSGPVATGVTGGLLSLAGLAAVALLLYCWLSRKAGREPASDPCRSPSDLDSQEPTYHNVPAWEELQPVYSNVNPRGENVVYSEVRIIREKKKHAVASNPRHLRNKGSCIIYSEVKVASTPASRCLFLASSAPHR

T2: human E11 protein (amino acids 745-850 of SEQ ID NO: 114, N-terminal His tag) (human, UniProt Q96RD9 745-850)
T2 construct: Membrane-proximal Ig domain of FcRH5, produced in CHO cells; also called human E11 domain; recombinant human E11
T2 sequence: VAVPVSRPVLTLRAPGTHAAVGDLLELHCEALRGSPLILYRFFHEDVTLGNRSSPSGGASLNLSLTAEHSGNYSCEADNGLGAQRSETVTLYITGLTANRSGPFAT

T3: human FcRH4 (full-length, on SVT2 cells) (human, UniProt Q96PJ5 20-515)
T3 construct: whole, on cells; also called SVT2-FcRH4
T3 sequence (looked up): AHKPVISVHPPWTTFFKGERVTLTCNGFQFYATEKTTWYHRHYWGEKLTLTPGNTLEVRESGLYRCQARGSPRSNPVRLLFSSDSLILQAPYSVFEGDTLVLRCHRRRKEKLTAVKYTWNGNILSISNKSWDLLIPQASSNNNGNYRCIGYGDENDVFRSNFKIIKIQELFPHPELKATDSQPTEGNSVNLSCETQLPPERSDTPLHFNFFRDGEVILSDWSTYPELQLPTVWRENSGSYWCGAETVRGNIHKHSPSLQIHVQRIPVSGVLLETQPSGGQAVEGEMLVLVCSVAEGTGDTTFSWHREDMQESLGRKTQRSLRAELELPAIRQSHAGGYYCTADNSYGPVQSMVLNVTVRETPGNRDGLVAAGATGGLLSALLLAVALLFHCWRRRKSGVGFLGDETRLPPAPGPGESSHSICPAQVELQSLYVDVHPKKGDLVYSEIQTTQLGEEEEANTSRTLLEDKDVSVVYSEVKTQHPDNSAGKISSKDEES

T4: Human E11-TM-ICD (E11 domain, transmembrane domain, and cytoplasmic domains of human FcRH5, on SVT2 cells) (human, UniProt Q96RD9 745-977)
T4 construct: On cells
T4 sequence: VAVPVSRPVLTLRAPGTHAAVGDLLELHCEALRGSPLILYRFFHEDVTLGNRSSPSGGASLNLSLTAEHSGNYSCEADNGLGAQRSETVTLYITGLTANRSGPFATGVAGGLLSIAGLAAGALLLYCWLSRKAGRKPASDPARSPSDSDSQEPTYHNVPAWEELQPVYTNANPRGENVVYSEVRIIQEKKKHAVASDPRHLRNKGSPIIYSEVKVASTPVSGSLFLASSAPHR


What was measured:
[1] = target: T1, cynomolgus E11 domain protein; test: SPR, IgG captured on protein A, monovalent
Procedure: (§1) *E11 domain, transmembrane domain, and cytoplasmic domains of human FcRHS. §Surface plasmon resonance BIACORE * KD, monovalent affinity. Human E11 domain experiments were performed 1 to 3 times and averaged.
(§2) Briefly, test antibodies were captured on flow cells 2, 3 or 4 with flow cell 1 as a reference on a protein A Series S CM5 chip (GE Life Sciences, Piscataway, NJ). An FcRH5 protein fragment was used as analyte, with a flow rate of 30 μl/minute. Between injections the capture surface was regenerated by a 30 second injection of 10 mM glycine, pH 1.5 at a flow rate of 10 μl/minute. Interactions were assessed at 25° C. in 10 mM HEPES pH 7.4, 150 mM NaCl, 0.05% Tween 20 (HBSP). Reference data from the reference flow cell and from injection of buffer alone was subtracted prior to kinetic analysis. Kinetic information was calculated by fitting data to a 1:1 binding model. Reference subtraction and data fitting were performed using BIAevaluation software (GE Life Sciences, Piscataway, NJ).

[2] = target: T2, human E11 protein (amino acids 745-850 …); test: SPR, IgG captured on protein A, monovalent
Procedure: as §1, §2

[3] = target: T3, human FcRH4 (full-length, on SVT2 cells); test: FACS, SVT2 cells
[4] = target: T4, Human E11-TM-ICD (E11 domain, …); test: FACS, SVT2 cells

Kd [1] [nM]	Kd [2] [nM]	binding result [3]	binding result [4]	Binder
27	68	no binding	binds	17B1 (antibody, mouse IgG2a, V domains shown, mouse mAb, Campaign C; recombinant murine IgG2a for SPR) VH: QVQLQQSGPELVRPGVSVKISCKGSGYTFTHYAMHWVKQSHTKSLEWIGMISSSSGNTNFNQKFMDKATMTVDKSSTTAYLELARLTFGDSAIYYCARWSYYALFDYWGQGTTVTVSS VL: ENVLTQSPAIMSASPGEKVTMTCSADSSVDYIHWYQQKSNTSPKLWIYDTSKLASGVPGRFSGSGSGNSYSLTISSMEAEDFATYYCFQGSGYPLTFGSGTKLELK
9.1	0.5	no binding	binds	15G8 (antibody, mouse IgG2a, V domains shown, mouse mAb, Campaign C; recombinant murine IgG2a for SPR; also called mAb 15G8) VH: EVQLQQSGPELVKPGASVKMSCKASGYTFTNYVIHWMKQKPGQGLEWIGYISPYNDYTKYNEKFEGKATLTSDKSSNTAYMELSSLTSEDSAVYYCARRDYYGSSDYWGQGTTLTVSS VL: QIVLTQSPAIMSASPGEKVTMTCSASSSVDYMHWYQQKSGTSPKKWIYDTSKLASGVPARFSGSGSGTSYSLTIGSMEAEDAATYYCQQWSSNPPTFGGGTKLEIK
